Source: PMC8410769, “A CDK-regulated chromatin segregase promoting chromosome replication” (Nature Communications, 2021)

Target: the molecule itself
Experiment: SEC; Superose 6 (3.2/300) in 150 mM KCl, 25 mM Tris-HCl pH 7.2, 5% glycerol, 0.05% NP-40, 1 mM EDTA, 4 mM MgCl2; purified Yta7 and mutants

B1: Yta7 ATP-binding mutant (K460A, Walker A), 3xFLAG-tagged (enzyme, S. cerevisiae, UniProt P40340 1-1379, looked up)
chain: MARNLRNRRGSDVEDASNAKVGYETQIKDENGIIHTTTRSLRKINYAEIEKVFDFLEDDQVMDKDETPVDVTSDEHHNNNQKGDDEDDDVDLVSPHENARTNEELTNERNLRKRKAHDPEEDDESFHEEDVDDDEEEEEADEFEDEYLDEDSKDNNRRRRAADRKFVVPDPDDDEEYDEDDEEGDRISHSASSKRLKRANSRRTRSSRHPETPPPVRRALRSRTRHSRTSNEENDDENDNSRNEALTLADEIRELQEDSPIREKRFLRERTKPVNYKLPPPLTASNAEEFIDKNNNALSFHNPSPARRGRGGWNASQNSGPTRRLFPTGGPFGGNDVTTIFGKNTNFYNQVPSAFSDNNNNKLILDSDSSDDEILPLGVTPKTKKENTQKKKKKKPEIADLDPLGVDMNVNFDDIGGLDNYIDQLKEMVALPLLYPELYQNFNITPPRGVLFHGPPGTGATLMARALAASCSSDERKITFFMRKGADILSKWVGEAERQLRLLFEEAKKHQPSIIFFDEIDGLAPVRSSKQEQIHASIVSTLLALMDGMDNRGQVIVIGATNRPDAVDPALRRPGRFDREFYFPLPDVKARFKILQIQTRKWSSPLSTNFIDKLAFLTKGYGGADLRSLCTEAALISIQRSFPQIYRSNDKLLVDPSKIKVKVSDFMLALKKIVPSSARSTGSSPQPLPELIKPLLADQLNNLKNKLDYMLNIKDTTFQRNTSLLQNFIDYEEYSGEEEEHDKYGGNEDTSSFRSYEFFESMAESQICKPRLLINGPKGNGQQYVGAAILNYLEEFNVQNLDLASLVSESSRTIEAAVVQSFMEAKKRQPSVVFIPNLDIWINTIPENVILVLSGLFRSLQSNEKILLLCLAENLDISEVKNGILSDFAFDKNIFQLHKPSKENITRYFSNLIELLKTKPSDIPMKKRRVKPLPELQKVTSNAAPTNFDENGEPLSEKVVLRRKLKSFQHQDMRLKNVLKIKLSGLMDLFKNRYKRFRKPPIDDAFLVHLFEPETSNDPNWQPAYIKDENMILEVSTGRKFFNMDLDIVEERLWNGYYSEPKQFLKDIELIYRDANTIGDRERVIKASEMFANAQMGIEEISTPDFIQECKATRQRDLERQELFLEDEEKRAAMELEAKEQSQENILQEPDLKDNKANEFGVAAGNQLQAQLQTTINTASIVNNSEVPQPIDTNLYKKEIPAAIPSAVDKEKAVIPEDSGANEEYTTELIQATCTSEITTDDDERARKEPKENEDSLQTQVTEENFSKIDANTNNINHVKEIQSVNKPNSLHETVEKRERSPIPKEVVEPEQGKKSDKELILTPEQIKKVSACLIEHCQNFTVSQLEDVHSSVAKIIWKSKSAWDKTGTVDEIIKFLSE
notes: Yta7, Saccharomyces cerevisiae; K460A mutant of the Walker A motif within the active AAA+ domain; also called ATPase mutant; source: S. cerevisiae (GAL1-10 promoter, G1-arrested, endogenous copy eliminated), purified (anti-FLAG M2, MonoQ, SEC); not shown: 3xFLAG, C-terminal, kept
B1 was tested, and the “stoichiometry N” value was 6.
